# Molecular target: T1, human GPC3 (human, UniProt P51654 25-563)
# T1 construct: range 25-563; soluble analyte; also called soluble human GPC3; glypican 3
# Assay: SPR
# T1 sequence (P51654 25-563 limits assumed): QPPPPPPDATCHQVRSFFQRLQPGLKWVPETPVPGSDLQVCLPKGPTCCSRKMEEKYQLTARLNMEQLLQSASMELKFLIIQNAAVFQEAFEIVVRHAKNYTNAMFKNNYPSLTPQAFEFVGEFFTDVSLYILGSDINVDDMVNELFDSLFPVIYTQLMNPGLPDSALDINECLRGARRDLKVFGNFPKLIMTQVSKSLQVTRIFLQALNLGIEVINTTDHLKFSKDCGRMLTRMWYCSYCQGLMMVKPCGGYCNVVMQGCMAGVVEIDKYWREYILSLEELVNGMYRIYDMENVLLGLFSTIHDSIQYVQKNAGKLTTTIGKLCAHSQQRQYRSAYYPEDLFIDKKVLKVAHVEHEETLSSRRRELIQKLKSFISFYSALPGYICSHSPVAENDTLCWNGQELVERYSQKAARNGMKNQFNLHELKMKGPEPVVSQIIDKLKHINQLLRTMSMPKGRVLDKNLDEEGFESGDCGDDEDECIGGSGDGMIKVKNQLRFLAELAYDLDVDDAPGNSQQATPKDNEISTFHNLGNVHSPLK
row,Binder,Kd [nM]
1,"H0610-G1dh/none-Hi-Kn010G3/L0009-k0 (antibody, V domains shown, one-arm) VH: QVQLVQSGAEVKKPGASVKVSCKASGYTFTDYEMHWIRQPPGQGLEWIGAIDGKTPDTAYSQKFKGRVTLTADKSTSTAYMELSSLTSEDTAVYYCTRFYSYTYWGQGTLVTVSS VL: DIVMTQSPLSLPVTPGEPASISCRSPQSLVHSNRNTYLHWYQQKPGQAPRLLIYKVSNRFSGVPDRFSGSGSGTDFTLKISRVEAEDVGVYYCGQGTQVPYTFGQGTKLEIK",2.99
2,"H0610-G1dh/none-Hi-Kn010G3/L0032-k0 (antibody, V domains shown, one-arm) VH: QVQLVQSGAEVKKPGASVKVSCKASGYTFTDYEMHWIRQPPGQGLEWIGAIDGKTPDTAYSQKFKGRVTLTADKSTSTAYMELSSLTSEDTAVYYCTRFYSYTYWGQGTLVTVSS VL: DIVMTQSPLSLPVTPGEPASISCRSSQSLVRSNRNTYLHWYQQKPGQAPRLLIYKVSNRFSGVPDRFSGSGSGTDFTLKISRVEAEDVGVYYCGQGTQVPYTFGQGTKLEIK",3.72
3,"H0610-G1dh/none-Hi-Kn010G3/L0062-k0 (antibody, V domains shown, one-arm) VH: QVQLVQSGAEVKKPGASVKVSCKASGYTFTDYEMHWIRQPPGQGLEWIGAIDGKTPDTAYSQKFKGRVTLTADKSTSTAYMELSSLTSEDTAVYYCTRFYSYTYWGQGTLVTVSS VL: DIVMTQSPLSLPVTPGEPASISCRSSQSLVHSNRDTYLHWYQQKPGQAPRLLIYKVSNRFSGVPDRFSGSGSGTDFTLKISRVEAEDVGVYYCGQGTQVPYTFGQGTKLEIK",5.28
4,"H0610-G1dh/none-Hi-Kn010G3/L0039-k0 (antibody, V domains shown, one-arm) VH: QVQLVQSGAEVKKPGASVKVSCKASGYTFTDYEMHWIRQPPGQGLEWIGAIDGKTPDTAYSQKFKGRVTLTADKSTSTAYMELSSLTSEDTAVYYCTRFYSYTYWGQGTLVTVSS VL: DIVMTQSPLSLPVTPGEPASISCRSSQSLVHHNRNTYLHWYQQKPGQAPRLLIYKVSNRFSGVPDRFSGSGSGTDFTLKISRVEAEDVGVYYCGQGTQVPYTFGQGTKLEIK",3.41
5,"H0610-G1dh/none-Hi-Kn010G3/L0075-k0 (antibody, V domains shown, one-arm) VH: QVQLVQSGAEVKKPGASVKVSCKASGYTFTDYEMHWIRQPPGQGLEWIGAIDGKTPDTAYSQKFKGRVTLTADKSTSTAYMELSSLTSEDTAVYYCTRFYSYTYWGQGTLVTVSS VL: DIVMTQSPLSLPVTPGEPASISCRSSQSLVHSNRWTYLHWYQQKPGQAPRLLIYKVSNRFSGVPDRFSGSGSGTDFTLKISRVEAEDVGVYYCGQGTQVPYTFGQGTKLEIK",2.85
6,"H0610-G1dh/none-Hi-Kn010G3/L0016-k0 (antibody, V domains shown, one-arm) VH: QVQLVQSGAEVKKPGASVKVSCKASGYTFTDYEMHWIRQPPGQGLEWIGAIDGKTPDTAYSQKFKGRVTLTADKSTSTAYMELSSLTSEDTAVYYCTRFYSYTYWGQGTLVTVSS VL: DIVMTQSPLSLPVTPGEPASISCRSSQSVVHSNRNTYLHWYQQKPGQAPRLLIYKVSNRFSGVPDRFSGSGSGTDFTLKISRVEAEDVGVYYCGQGTQVPYTFGQGTKLEIK",4.44
7,"H0610-G1dh/none-Hi-Kn010G3/L0045-k0 (antibody, V domains shown, one-arm) VH: QVQLVQSGAEVKKPGASVKVSCKASGYTFTDYEMHWIRQPPGQGLEWIGAIDGKTPDTAYSQKFKGRVTLTADKSTSTAYMELSSLTSEDTAVYYCTRFYSYTYWGQGTLVTVSS VL: DIVMTQSPLSLPVTPGEPASISCRSSQSLVHQNRNTYLHWYQQKPGQAPRLLIYKVSNRFSGVPDRFSGSGSGTDFTLKISRVEAEDVGVYYCGQGTQVPYTFGQGTKLEIK",4.66
8,"H0610-G1dh/none-Hi-Kn010G3/L0069-k0 (antibody, V domains shown, one-arm) VH: QVQLVQSGAEVKKPGASVKVSCKASGYTFTDYEMHWIRQPPGQGLEWIGAIDGKTPDTAYSQKFKGRVTLTADKSTSTAYMELSSLTSEDTAVYYCTRFYSYTYWGQGTLVTVSS VL: DIVMTQSPLSLPVTPGEPASISCRSSQSLVHSNRMTYLHWYQQKPGQAPRLLIYKVSNRFSGVPDRFSGSGSGTDFTLKISRVEAEDVGVYYCGQGTQVPYTFGQGTKLEIK",5.32
9,"H0610-G1dh/none-Hi-Kn010G3/L0014-k0 (antibody, V domains shown, one-arm) VH: QVQLVQSGAEVKKPGASVKVSCKASGYTFTDYEMHWIRQPPGQGLEWIGAIDGKTPDTAYSQKFKGRVTLTADKSTSTAYMELSSLTSEDTAVYYCTRFYSYTYWGQGTLVTVSS VL: DIVMTQSPLSLPVTPGEPASISCRSSQSMVHSNRNTYLHWYQQKPGQAPRLLIYKVSNRFSGVPDRFSGSGSGTDFTLKISRVEAEDVGVYYCGQGTQVPYTFGQGTKLEIK",1.82
10,"H0610-G1dh/none-Hi-Kn010G3/L0044-k0 (antibody, V domains shown, one-arm) VH: QVQLVQSGAEVKKPGASVKVSCKASGYTFTDYEMHWIRQPPGQGLEWIGAIDGKTPDTAYSQKFKGRVTLTADKSTSTAYMELSSLTSEDTAVYYCTRFYSYTYWGQGTLVTVSS VL: DIVMTQSPLSLPVTPGEPASISCRSSQSLVHPNRNTYLHWYQQKPGQAPRLLIYKVSNRFSGVPDRFSGSGSGTDFTLKISRVEAEDVGVYYCGQGTQVPYTFGQGTKLEIK",4.57

# Results, then the binder that gave them:
row,Kd [nM],Binder
1,4.79,"H0610-G1dh/none-Hi-Kn010G3/L0065-k0 (antibody, V domains shown, one-arm) VH: QVQLVQSGAEVKKPGASVKVSCKASGYTFTDYEMHWIRQPPGQGLEWIGAIDGKTPDTAYSQKFKGRVTLTADKSTSTAYMELSSLTSEDTAVYYCTRFYSYTYWGQGTLVTVSS VL: DIVMTQSPLSLPVTPGEPASISCRSSQSLVHSNRGTYLHWYQQKPGQAPRLLIYKVSNRFSGVPDRFSGSGSGTDFTLKISRVEAEDVGVYYCGQGTQVPYTFGQGTKLEIK"
2,6.03,"H0610-G1dh/none-Hi-Kn010G3/L0063-k0 (antibody, V domains shown, one-arm) VH: QVQLVQSGAEVKKPGASVKVSCKASGYTFTDYEMHWIRQPPGQGLEWIGAIDGKTPDTAYSQKFKGRVTLTADKSTSTAYMELSSLTSEDTAVYYCTRFYSYTYWGQGTLVTVSS VL: DIVMTQSPLSLPVTPGEPASISCRSSQSLVHSNRETYLHWYQQKPGQAPRLLIYKVSNRFSGVPDRFSGSGSGTDFTLKISRVEAEDVGVYYCGQGTQVPYTFGQGTKLEIK"
3,4.27,"H0610-G1dh/none-Hi-Kn010G3/L0042-k0 (antibody, V domains shown, one-arm) VH: QVQLVQSGAEVKKPGASVKVSCKASGYTFTDYEMHWIRQPPGQGLEWIGAIDGKTPDTAYSQKFKGRVTLTADKSTSTAYMELSSLTSEDTAVYYCTRFYSYTYWGQGTLVTVSS VL: DIVMTQSPLSLPVTPGEPASISCRSSQSLVHMNRNTYLHWYQQKPGQAPRLLIYKVSNRFSGVPDRFSGSGSGTDFTLKISRVEAEDVGVYYCGQGTQVPYTFGQGTKLEIK"
4,4.85,"H0610-G1dh/none-Hi-Kn010G3/L0041-k0 (antibody, V domains shown, one-arm) VH: QVQLVQSGAEVKKPGASVKVSCKASGYTFTDYEMHWIRQPPGQGLEWIGAIDGKTPDTAYSQKFKGRVTLTADKSTSTAYMELSSLTSEDTAVYYCTRFYSYTYWGQGTLVTVSS VL: DIVMTQSPLSLPVTPGEPASISCRSSQSLVHLNRNTYLHWYQQKPGQAPRLLIYKVSNRFSGVPDRFSGSGSGTDFTLKISRVEAEDVGVYYCGQGTQVPYTFGQGTKLEIK"
5,5.45,"H0610-G1dh/none-Hi-Kn010G3/L0046-k0 (antibody, V domains shown, one-arm) VH: QVQLVQSGAEVKKPGASVKVSCKASGYTFTDYEMHWIRQPPGQGLEWIGAIDGKTPDTAYSQKFKGRVTLTADKSTSTAYMELSSLTSEDTAVYYCTRFYSYTYWGQGTLVTVSS VL: DIVMTQSPLSLPVTPGEPASISCRSSQSLVHVNRNTYLHWYQQKPGQAPRLLIYKVSNRFSGVPDRFSGSGSGTDFTLKISRVEAEDVGVYYCGQGTQVPYTFGQGTKLEIK"
6,5.14,"H0610-G1dh/none-Hi-Kn010G3/L0043-k0 (antibody, V domains shown, one-arm) VH: QVQLVQSGAEVKKPGASVKVSCKASGYTFTDYEMHWIRQPPGQGLEWIGAIDGKTPDTAYSQKFKGRVTLTADKSTSTAYMELSSLTSEDTAVYYCTRFYSYTYWGQGTLVTVSS VL: DIVMTQSPLSLPVTPGEPASISCRSSQSLVHNNRNTYLHWYQQKPGQAPRLLIYKVSNRFSGVPDRFSGSGSGTDFTLKISRVEAEDVGVYYCGQGTQVPYTFGQGTKLEIK"
7,3.35,"H0610-G1dh/none-Hi-Kn010G3/L0013-k0 (antibody, V domains shown, one-arm) VH: QVQLVQSGAEVKKPGASVKVSCKASGYTFTDYEMHWIRQPPGQGLEWIGAIDGKTPDTAYSQKFKGRVTLTADKSTSTAYMELSSLTSEDTAVYYCTRFYSYTYWGQGTLVTVSS VL: DIVMTQSPLSLPVTPGEPASISCRSSQSIVHSNRNTYLHWYQQKPGQAPRLLIYKVSNRFSGVPDRFSGSGSGTDFTLKISRVEAEDVGVYYCGQGTQVPYTFGQGTKLEIK"
8,4.2,"H0610-G1dh/none-Hi-Kn010G3/L0066-k0 (antibody, V domains shown, one-arm) VH: QVQLVQSGAEVKKPGASVKVSCKASGYTFTDYEMHWIRQPPGQGLEWIGAIDGKTPDTAYSQKFKGRVTLTADKSTSTAYMELSSLTSEDTAVYYCTRFYSYTYWGQGTLVTVSS VL: DIVMTQSPLSLPVTPGEPASISCRSSQSLVHSNRHTYLHWYQQKPGQAPRLLIYKVSNRFSGVPDRFSGSGSGTDFTLKISRVEAEDVGVYYCGQGTQVPYTFGQGTKLEIK"
9,2.75,"H0610-G1dh/none-Hi-Kn010G3/L0038-k0 (antibody, V domains shown, one-arm) VH: QVQLVQSGAEVKKPGASVKVSCKASGYTFTDYEMHWIRQPPGQGLEWIGAIDGKTPDTAYSQKFKGRVTLTADKSTSTAYMELSSLTSEDTAVYYCTRFYSYTYWGQGTLVTVSS VL: DIVMTQSPLSLPVTPGEPASISCRSSQSLVHFNRNTYLHWYQQKPGQAPRLLIYKVSNRFSGVPDRFSGSGSGTDFTLKISRVEAEDVGVYYCGQGTQVPYTFGQGTKLEIK"
10,1.55,"H0610-G1dh/none-Hi-Kn010G3/L0012-k0 (antibody, V domains shown, one-arm) VH: QVQLVQSGAEVKKPGASVKVSCKASGYTFTDYEMHWIRQPPGQGLEWIGAIDGKTPDTAYSQKFKGRVTLTADKSTSTAYMELSSLTSEDTAVYYCTRFYSYTYWGQGTLVTVSS VL: DIVMTQSPLSLPVTPGEPASISCRSSQSFVHSNRNTYLHWYQQKPGQAPRLLIYKVSNRFSGVPDRFSGSGSGTDFTLKISRVEAEDVGVYYCGQGTQVPYTFGQGTKLEIK"
11,2.23,"H0610-G1dh/none-Hi-Kn010G3/L0047-k0 (antibody, V domains shown, one-arm) VH: QVQLVQSGAEVKKPGASVKVSCKASGYTFTDYEMHWIRQPPGQGLEWIGAIDGKTPDTAYSQKFKGRVTLTADKSTSTAYMELSSLTSEDTAVYYCTRFYSYTYWGQGTLVTVSS VL: DIVMTQSPLSLPVTPGEPASISCRSSQSLVHWNRNTYLHWYQQKPGQAPRLLIYKVSNRFSGVPDRFSGSGSGTDFTLKISRVEAEDVGVYYCGQGTQVPYTFGQGTKLEIK"
12,3.37,"H0610-G1dh/none-Hi-Kn010G3/L0064-k0 (antibody, V domains shown, one-arm) VH: QVQLVQSGAEVKKPGASVKVSCKASGYTFTDYEMHWIRQPPGQGLEWIGAIDGKTPDTAYSQKFKGRVTLTADKSTSTAYMELSSLTSEDTAVYYCTRFYSYTYWGQGTLVTVSS VL: DIVMTQSPLSLPVTPGEPASISCRSSQSLVHSNRFTYLHWYQQKPGQAPRLLIYKVSNRFSGVPDRFSGSGSGTDFTLKISRVEAEDVGVYYCGQGTQVPYTFGQGTKLEIK"

# From patent US20250066503A1, “CELL INJURY INDUCING THERAPEUTIC DRUG FOR USE IN CANCER THERAPY” (CHUGAI SEIYAKU KABUSHIKI KAISHA, priority 2016, published 2025)
